Results reported in US20250263677A1, “BIOCATALYTIC USE OF NONHEME IRON PROTEINS FOR MOLECULAR FUNCTIONALIZATION” (The Johns Hopkins University, priority 2022, published 2025).
Where two headings read alike, the source gives them in different places.

Columns and labels:
[1] = Kinetic analyses of 1NF azidation with purified Sav HppD protein variants; format: biochemical
Description: Kinetic analyses for wild-type Sav HppD, Az1, and Az2 mediated 1NF azidation were performed in an anaerobic chamber. Ferrous ammonium sulfate (10 μL, 100 mM in water) and sodium azide (10 μL, 1 M in water) were added to a buffer solution containing purified Sav HppD protein variant (20 M, 2.4 mL) and the solution was shaken at 600 rpm for 5 minutes. A 1,2-dimethoxyethane solution of N-fluoroamide substrate 1NF was added to the solution (final concentration ranging from 0.25 mM to 15 mM in reaction solution). An aliquot of 100 μL of the reaction mixture was removed at 3, 6, 9, 12, and 15 minutes and quenched by vortexing with 300 μL 6:4 EtOAc/hexanes solution containing 0.5 mM (final concentration) internal standard 1,2,3-trimethoxybenzene. After centrifugation at 12,000 rpm for 10 mins, an aliquot (200 μL) of the organic layer was taken for GCMS analysis for product quantification.

[2] = 1NF azidation with Sav HppD variants from directed evolution (whole E. coli cells); format: biochemical; settings: OD600=10, 10 mM 1NF, 25 mM NaN3, 2.5 mM Fe2+; for TTN (total turnover): KPi pH 7.4, anaerobic, 24 hours
Description: FIGS. 9A-9C is a computational model of the Sav HppD active site, a reaction scheme, and a plot of total turnovers for various Sav HppD variants. […] The computational model was generated from protein database entry 1T47. FIG. 9B provides the azidation reaction scheme for the reaction screened with a high-throughput screening platform. FIG. 9C provides representative variants identified during the directed evolution of Sav HppD. Experiments were performed at analytical scale using suspensions of E. coli expressing Sav HppD variants (OD600=10), 10 mM substrate 1NF, 25 mM NaN3, 2.5 mM Fe^2+ in KPi buffer (pH 7.4) at room temperature under anaerobic conditions for 24 hours.
In a typical experiment, ferrous ammonium sulfate (20 μL, 100 mM in water), sodium azide (20 μL, 1 M in water), and N-fluoroamide substrate (20 μL, 1.5 M in DME) were added to E. coli harboring non-heme iron enzyme variant (400 μL, adjusted to the appropriate OD600) in a 2 mL screw top GC vial in an anaerobic chamber. The vial was capped and shaken at 680 rpm at room temperature for 24 hours. At the end of the reaction, the vial was opened and the reaction was quenched with 6 mL of a hexanes/ethylacetate solution (4:6 v/v) of internal standard 1,2,3-trimethoxybenzene (0.5 mM final concentration). The reaction mixture was transferred to a 15 mL centrifuge tube, vortexed (10 seconds, 3 times), then centrifuged (10,500×g, 5 min) to completely separate the organic and aqueous layers. An aliquot (200-300 μL) of the organic layer was used for product quantification via GCMS and enantioselectivity via chiral HPLC or chiral GC. The total turnover numbers (TTNs) reported are calculated with respect to non-heme iron enzymes expressed in E. coli and represent the total number of turnovers obtained from the catalyst under the stated reaction conditions.
A high-throughput screening (HTS) platform based on copper-catalyzed azide-alkyne cycloaddition (CuAAC) was utilized for Sav HppD variants, and provided reliable quantification of enzymatic azidation products with a coefficient of variation of 9% and a detection limit of 4 μM. With this HTS platform, more than 5,000 clones generated through error-prone PCR or site-saturation mutagenesis were evaluated.

[3] = Substrate scope of enzymatic azidation of N-fluoroamide substrates (whole E. coli cells); format: biochemical; settings: across the substrates and conditions tested
Description: FIGS. 3A-3C is an illustration with reaction products generated from exemplary substrate compounds. […] Experiments were performed at analytical scale using suspensions of E. coli expressing Sav HppD variants in KPi buffer (pH 7.4) at room temperature under anaerobic conditions for 24 hours. The absolute configuration of enzymatically synthesized azidation product 1N was determined to be S via X-ray crystallography. The absolute configurations of all other azidation products were inferred by analogy. FIG. 3B summarizes a preparative scale synthesis and absolute configuration determination of product 1N. […]
In a typical experiment, ferrous ammonium sulfate (20 μL, 100 mM in water), sodium azide (20 μL, 1 M in water), and N-fluoroamide substrate (20 μL, 1.5 M in DME) were added to E. coli harboring non-heme iron enzyme variant (400 μL, adjusted to the appropriate OD600) in a 2 mL screw top GC vial in an anaerobic chamber. […] An aliquot (200-300 μL) of the organic layer was used for product quantification via GCMS and enantioselectivity via chiral HPLC or chiral GC. The total turnover numbers (TTNs) reported are calculated with respect to non-heme iron enzymes expressed in E. coli and represent the total number of turnovers obtained from the catalyst under the stated reaction conditions. […]

[4] = Azidation reaction condition optimization with Sav HppD Az1 and Az2 (whole E. coli cells); format: biochemical
[5] = format: biochemical, E. coli
Description: The reactions were performed by adding ferrous ammonium sulfate (10 μL, 100 mM in water), sodium azide (10 μL, 1 M in water), and N-fluoroamide substrate 1NF (10 μL, 400 mM in DME) to E. coli harboring non-heme iron enzymes (400 μL, adjusted to OD600=40) in a 2 mL screw top GC vial. The vial was capped and shaken at 680 rpm at room temperature for 24 hours. At the end of the reaction, the vial was opened and the reaction was quenched with 0.8 mL of a hexanes/ethylacetate solution (4:6 v/v) of internal standard 1,2,3-trimethoxybenzene (0.5 mM final concentration). The reaction mixture was transferred to a 2 mL microcentrifuge tube, vortexed (10 seconds, 3 times), then centrifuged (14,000×g, 5 min) to completely separate the organic and aqueous layers. An aliquot (200-300 μL) of the organic layer was used for product quantification via GCMS and enantioselectivity via chiral HPLC or chiral GC.

[6] = 1NF (10 μL, 800 mM), OD600 = 10
[7] = 1NF (10 μL, 1.5M), Fe^2+ (20 μL, 100 mM), NaN3 (40 μL, 1M), OD600 = 10
[8] = 1NF (20 μL, 1.5M), Fe^2+ (20 μL, 100 mM), NaN3 (40 μL, 1M), OD600 = 10
[9] = 1NF (10 μL, 400 mM), Fe^2+ (10 μL, 100 mM), NaN3 (10 μL, 1M), OD600 = 10
[10] = 1NF (20 μL, 1.5M), Fe^2+ (20 μL, 100 mM), NaN3 (40 μL, 1M), OD600 = 40
[11] = whole E. coli cells OD600=40, 1NF, NaN3, Fe2+, 24 hours

B1: HppD Az1: sextuple mutant Sav HppD V189A F216A P243A N245Q Q255A L367I, SEQ ID NO: 2 (protein)
chain: MTQTTHHTPDTARQADPFPVKGMDAVVFAVGNAKQAAHYYSTAFGMQLVAYSGPENGSRETASYVLTNGSARFVLTSVIKPATPWGHFLADHVAEHGDGVVDLAIEVPDARAAHAYAIEHGARSVAEPYELKDEHGTVVLAAIATYGKTRHTLVDRTGYDGPYLPGYVAAAPIVEPPAHRTFQAIDHCAGNVELGRMNEWVGFYNKVMGFTNMKEAVGDDIATEYSALMSKVVADGTLKVKFAIQEPALAKKKSAIDEYLEFYGGAGVQHIALNTGDIVETVRTMRAAGVQFLDTPDSYYDTLGEWVGDTRVPVDTLRELKILADRDEDGYLLQIFTKPVQDRPTVFFEIIERHGSMGFGKGNFKAIFEAIEREQEKRGNL
[1]
  improvement in catalytic efficiency (kcat/KM) compared to the wild-type enzyme: around 2 fold
[2]
  1N/1A (ratio of 1N to 1A among products): 15.5
  1N/1F (ratio of 1N to 1F among products): 53.8
  TTN (total turnover): 1340 ± 40
[2]; listed as Sav HppD Az1
  TTN (total turnover): 1340
[3]
  activity and enantioselectivity: higher activity but lower enantioselectivity than Sav HppD Az2
[4]; [6]
  1/1A: 18.0
  1/1F: 52.0
  TTN: 2480 ± 30
[4]; [7]
  1/1A: 19.5
  1/1F: 47.0
  TTN: 3100 ± 60
[4]; [8]
  1/1A: 20.0
  1/1F: 55.0
  TTN: 4290 ± 50
[4]; NaN3 (20 μL, 1M)
  1/1A: 14.0
  1/1F: 52.0
  TTN: 1550 ± 40
[4]; OD600 = 10
  1/1A: 16.4
  1/1F: 48.0
  TTN: 1940 ± 20
[4]; initial conditions
  1/1A: 15.5
  1/1F: 54.0
  TTN: 1340 ± 40

B2: HppD Az2: septuple mutant Sav HppD V189A N191A S230L P243G N245F Q255P L367I, SEQ ID NO: 3 (protein)
chain: MTQTTHHTPDTARQADPFPVKGMDAVVFAVGNAKQAAHYYSTAFGMQLVAYSGPENGSRETASYVLTNGSARFVLTSVIKPATPWGHFLADHVAEHGDGVVDLAIEVPDARAAHAYAIEHGARSVAEPYELKDEHGTVVLAAIATYGKTRHTLVDRTGYDGPYLPGYVAAAPIVEPPAHRTFQAIDHCAGAVELGRMNEWVGFYNKVMGFTNMKEFVGDDIATEYSALMLKVVADGTLKVKFGIFEPALAKKKSPIDEYLEFYGGAGVQHIALNTGDIVETVRTMRAAGVQFLDTPDSYYDTLGEWVGDTRVPVDTLRELKILADRDEDGYLLQIFTKPVQDRPTVFFEIIERHGSMGFGKGNFKAIFEAIEREQEKRGNL
[1]
  improvement in catalytic efficiency (kcat/KM) compared to the wild-type enzyme: around 2 fold
[2]
  1N/1A (ratio of 1N to 1A among products): 19.3
  1N/1F (ratio of 1N to 1F among products): 30.6
  TTN (total turnover): 490 ± 20
[2]; listed as Sav HppD Az2
  TTN (total turnover): 490
[4]; [9]
  1/1A: 19.3
  1/1F: 30.6
  TTN: 490 ± 20
[4]; [8]
  1/1A: 7.0
  1/1F: 18.0
  TTN: 260 ± 30
[4]; [10]
  1/1A: 21.0
  1/1F: 34.0
  TTN: 1820 ± 50

B3: Sav HppD: (4-hydroxyphenyl)pyruvate dioxygenase from Streptomyces avermitilis, SEQ ID NO: 1, Uniprot Q53586 (protein, listed as Streptomyces sp.)
chain: MTQTTHHTPDTARQADPFPVKGMDAVVFAVGNAKQAAHYYSTAFGMQLVAYSGPENGSRETASYVLTNGSARFVLTSVIKPATPWGHFLADHVAEHGDGVVDLAIEVPDARAAHAYAIEHGARSVAEPYELKDEHGTVVLAAIATYGKTRHTLVDRTGYDGPYLPGYVAAAPIVEPPAHRTFQAIDHCVGNVELGRMNEWVGFYNKVMGFTNMKEFVGDDIATEYSALMSKVVADGTLKVKFPINEPALAKKKSQIDEYLEFYGGAGVQHIALNTGDIVETVRTMRAAGVQFLDTPDSYYDTLGEWVGDTRVPVDTLRELKILADRDEDGYLLQIFTKPVQDRPTVFFEIIERHGSMGFGKGNFKALFEAIEREQEKRGNL
[5]; no azide addition
  1A % (yield of 1A): 6.5%
  1F % (yield of 1F): 2.2%
[5]; [11]
  1A % (yield of 1A): 10.0%
  1F % (yield of 1F): 3.7%
[5]; whole E. coli cells OD600=40, 1NF, NaN3, Fe2+, room temperature, 24 hours
  1N % (yield of 1N): 33.0 ± 2.0%
[2]
  1N/1A (ratio of 1N to 1A among products): 3.0
  1N/1F (ratio of 1N to 1F among products): 9.0
  TTN (total turnover): 250 ± 10
